Values of other authors as cited in PMC2853182.

Target: Protective antigen (PA) (Bacillus anthracis) (UniProt P13423)

**Q.** For “CMG2 soluble domain (from UniProt P58335)”, which Kd is on record?
**A.** 2 nM
